{
  "source": "paper PMC9604145",
  "target": "Su(H)^wt-myc (Suppressor of Hairless, wildtype, pcDNA3.1) (D. melanogaster) (UniProt P28159)",
  "sequence (P28159 whole entry, the tested form may be a part)": "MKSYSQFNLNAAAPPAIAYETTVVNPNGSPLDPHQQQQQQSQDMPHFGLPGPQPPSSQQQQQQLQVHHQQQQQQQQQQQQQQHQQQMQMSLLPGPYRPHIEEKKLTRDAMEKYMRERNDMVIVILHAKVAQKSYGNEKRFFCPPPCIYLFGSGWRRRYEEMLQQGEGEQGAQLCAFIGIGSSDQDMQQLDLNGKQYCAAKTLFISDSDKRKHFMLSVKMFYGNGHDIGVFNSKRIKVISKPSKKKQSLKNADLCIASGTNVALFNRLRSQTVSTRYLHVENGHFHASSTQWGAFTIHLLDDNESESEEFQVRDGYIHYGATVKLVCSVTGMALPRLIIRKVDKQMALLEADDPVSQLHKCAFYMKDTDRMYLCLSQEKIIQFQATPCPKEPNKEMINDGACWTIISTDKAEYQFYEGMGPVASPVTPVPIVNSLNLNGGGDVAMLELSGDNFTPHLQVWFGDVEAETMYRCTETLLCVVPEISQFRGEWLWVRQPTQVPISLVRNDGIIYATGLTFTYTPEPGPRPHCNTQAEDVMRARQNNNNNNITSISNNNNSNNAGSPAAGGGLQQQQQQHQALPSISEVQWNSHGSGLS",
  "data": [
    {"substance": "ICN^RAMANK (pcDNA-ICN-RAMANK) (domain or fragment)", "values": [
      {"measurement": "Su(H)^wt-myc protein level (Western blot, relative to beta-tubulin) 0-6 h after cycloheximide in HeLa RBPJ^KO cells co-expressing ICN^RAMANK (% of the induced protein)", "result": 70}
    ]}
  ]
}
